# Like-named read-outs stand apart in the source and are kept apart here.
# T1: FtsZ (purified, C. crescentus) (Caulobacter crescentus, UniProt B8H080 1-508)
# T1 sequence (looked up): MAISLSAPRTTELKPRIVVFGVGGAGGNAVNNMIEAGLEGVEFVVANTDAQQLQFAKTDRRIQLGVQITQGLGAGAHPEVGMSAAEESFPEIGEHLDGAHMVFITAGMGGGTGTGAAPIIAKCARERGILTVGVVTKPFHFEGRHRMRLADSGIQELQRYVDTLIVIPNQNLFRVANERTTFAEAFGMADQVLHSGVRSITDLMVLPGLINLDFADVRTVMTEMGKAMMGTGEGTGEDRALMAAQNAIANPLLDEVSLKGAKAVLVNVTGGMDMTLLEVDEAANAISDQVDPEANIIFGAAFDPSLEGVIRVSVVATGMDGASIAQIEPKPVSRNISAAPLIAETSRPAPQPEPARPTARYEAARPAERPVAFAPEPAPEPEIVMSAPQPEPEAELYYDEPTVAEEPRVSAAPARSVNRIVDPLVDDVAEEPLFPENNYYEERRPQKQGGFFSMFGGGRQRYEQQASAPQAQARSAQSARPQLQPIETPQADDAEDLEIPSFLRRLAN
# B1: untagged WT FzlA (natural protein, Caulobacter crescentus)
# chain: MSVERTLHHFPLDPASRQVRLALGEKRLPFVEMQVRYWEMPPEFTSLNPSGMPPVLVETKHQRNLVICETRAILEHIEETETEPPLLGRDPAERAEARRLLQWFDRKFDNEVNGFLLHEKMEKRLLRMGAPDLAALRQGREALRMHLGYIESLLQTRDWLAGRRMSLADFAAAAHLSVIDYFGDVPWKDFQAAKTWYMKLKSRPCFRPILADRWPGLAPAAHYDDLDF
# notes: FzlA, Caulobacter crescentus; source: E. coli Rosetta (DE3) pLysS, purified (HisTrap, His6-SUMO cleaved with His6-ULP, second HisTrap flow through)
# B2: FzlA^UE2 (D227K) (natural protein, Caulobacter crescentus)
# chain: MSVERTLHHFPLDPASRQVRLALGEKRLPFVEMQVRYWEMPPEFTSLNPSGMPPVLVETKHQRNLVICETRAILEHIEETETEPPLLGRDPAERAEARRLLQWFDRKFDNEVNGFLLHEKMEKRLLRMGAPDLAALRQGREALRMHLGYIESLLQTRDWLAGRRMSLADFAAAAHLSVIDYFGDVPWKDFQAAKTWYMKLKSRPCFRPILADRWPGLAPAAHYDDLKF
# notes: FzlA, Caulobacter crescentus, with D227K; also called unknown essential activity; source: E. coli Rosetta (DE3) pLysS, purified (HisTrap, His6-SUMO cleaved)
# B3: FzlA^UN1 (P131A) (natural protein, Caulobacter crescentus)
# chain: MSVERTLHHFPLDPASRQVRLALGEKRLPFVEMQVRYWEMPPEFTSLNPSGMPPVLVETKHQRNLVICETRAILEHIEETETEPPLLGRDPAERAEARRLLQWFDRKFDNEVNGFLLHEKMEKRLLRMGAADLAALRQGREALRMHLGYIESLLQTRDWLAGRRMSLADFAAAAHLSVIDYFGDVPWKDFQAAKTWYMKLKSRPCFRPILADRWPGLAPAAHYDDLDF
# notes: FzlA, Caulobacter crescentus, with P131A; also called unknown nonessential activity; source: E. coli Rosetta (DE3) pLysS, purified (HisTrap, His6-SUMO cleaved)
# B4: FzlA^NH3 (R144D) (natural protein, Caulobacter crescentus)
# chain: MSVERTLHHFPLDPASRQVRLALGEKRLPFVEMQVRYWEMPPEFTSLNPSGMPPVLVETKHQRNLVICETRAILEHIEETETEPPLLGRDPAERAEARRLLQWFDRKFDNEVNGFLLHEKMEKRLLRMGAPDLAALRQGREALDMHLGYIESLLQTRDWLAGRRMSLADFAAAAHLSVIDYFGDVPWKDFQAAKTWYMKLKSRPCFRPILADRWPGLAPAAHYDDLDF
# notes: FzlA, Caulobacter crescentus, with R144D; also called no helices; source: E. coli Rosetta (DE3) pLysS, purified (HisTrap, His6-SUMO cleaved)
# B5: FzlA^NB2 (E119K) (natural protein, Caulobacter crescentus)
# chain: MSVERTLHHFPLDPASRQVRLALGEKRLPFVEMQVRYWEMPPEFTSLNPSGMPPVLVETKHQRNLVICETRAILEHIEETETEPPLLGRDPAERAEARRLLQWFDRKFDNEVNGFLLHKKMEKRLLRMGAPDLAALRQGREALRMHLGYIESLLQTRDWLAGRRMSLADFAAAAHLSVIDYFGDVPWKDFQAAKTWYMKLKSRPCFRPILADRWPGLAPAAHYDDLDF
# notes: FzlA, Caulobacter crescentus, with E119K; source: E. coli Rosetta (DE3) pLysS, purified (HisTrap, His6-SUMO cleaved)
# B6: FzlA^UE1 (Y223A D227K F228A) (natural protein, Caulobacter crescentus)
# chain: MSVERTLHHFPLDPASRQVRLALGEKRLPFVEMQVRYWEMPPEFTSLNPSGMPPVLVETKHQRNLVICETRAILEHIEETETEPPLLGRDPAERAEARRLLQWFDRKFDNEVNGFLLHEKMEKRLLRMGAPDLAALRQGREALRMHLGYIESLLQTRDWLAGRRMSLADFAAAAHLSVIDYFGDVPWKDFQAAKTWYMKLKSRPCFRPILADRWPGLAPAAHADDLKA
# notes: FzlA, Caulobacter crescentus, with Y223A D227K F228A; also called unknown essential activity; source: E. coli Rosetta (DE3) pLysS, purified (HisTrap, His6-SUMO cleaved)
# B7: FzlA^NB1 (W38A R124D) (natural protein, Caulobacter crescentus)
# chain: MSVERTLHHFPLDPASRQVRLALGEKRLPFVEMQVRYAEMPPEFTSLNPSGMPPVLVETKHQRNLVICETRAILEHIEETETEPPLLGRDPAERAEARRLLQWFDRKFDNEVNGFLLHEKMEKDLLRMGAPDLAALRQGREALRMHLGYIESLLQTRDWLAGRRMSLADFAAAAHLSVIDYFGDVPWKDFQAAKTWYMKLKSRPCFRPILADRWPGLAPAAHYDDLDF
# notes: FzlA, Caulobacter crescentus, with W38A R124D; Self-aggregates under the standard conditions (pH 6.5, 2:1 FzlA:FtsZ); source: E. coli Rosetta (DE3) pLysS, purified (HisTrap, His6-SUMO cleaved)
# B8: FzlA^NH1 (P131A L136A R137E) (natural protein, Caulobacter crescentus)
# chain: MSVERTLHHFPLDPASRQVRLALGEKRLPFVEMQVRYWEMPPEFTSLNPSGMPPVLVETKHQRNLVICETRAILEHIEETETEPPLLGRDPAERAEARRLLQWFDRKFDNEVNGFLLHEKMEKRLLRMGAADLAAAEQGREALRMHLGYIESLLQTRDWLAGRRMSLADFAAAAHLSVIDYFGDVPWKDFQAAKTWYMKLKSRPCFRPILADRWPGLAPAAHYDDLDF
# notes: FzlA, Caulobacter crescentus, with P131A L136A R137E; also called no helices; source: E. coli Rosetta (DE3) pLysS, purified (HisTrap, His6-SUMO cleaved)
# B9: FzlA^NH2 (R140D E141K) (natural protein, Caulobacter crescentus)
# chain: MSVERTLHHFPLDPASRQVRLALGEKRLPFVEMQVRYWEMPPEFTSLNPSGMPPVLVETKHQRNLVICETRAILEHIEETETEPPLLGRDPAERAEARRLLQWFDRKFDNEVNGFLLHEKMEKRLLRMGAPDLAALRQGDKALRMHLGYIESLLQTRDWLAGRRMSLADFAAAAHLSVIDYFGDVPWKDFQAAKTWYMKLKSRPCFRPILADRWPGLAPAAHYDDLDF
# notes: FzlA, Caulobacter crescentus, with R140D E141K; also called no helices; source: E. coli Rosetta (DE3) pLysS, purified (HisTrap, His6-SUMO cleaved)
# Legend:
# [1] = target: T1, FtsZ (purified, C. crescentus)
# [2] = target: T1, FtsZ (purified, C. crescentus); assay: co-sedimentation; low speed co-pelleting (higher order structures): 4 µM FzlA variant ± 2 µM FtsZ, 50 mM MES pH 6.5, 50 mM KCl, 2.5 mM MgCl2, 2 mM GTP, 16 000 x g 15 min room temperature; details: both partners purified
# [3] = target: T1, FtsZ (purified, C. crescentus); assay: co-sedimentation; high speed co-pelleting: 4 µM FzlA variant ± 2 µM FtsZ, 50 mM MES pH 6.5, 50 mM KCl, 10 mM MgCl2, 2 mM GTP, 0.05% Triton X-100, 15 min room temperature, 280 000 x g 15 min 25°C; Coomassie gel quantified; details: both partners purified
# [4] = target: T1, FtsZ (purified, C. crescentus); assay: cell-based or functional assay
Molecule,% of FtsZ GTPase rate [1],"fold change of FzlA in pellet (with FtsZ vs. alone), low speed [2]","fold change of FzlA in pellet (with FtsZ vs. alone), high speed [3]",% of FtsZ GTPase rate [4]
FzlA^WB1 (D109R E122K) (from UniProt A0A0H3CDY2 1-228) (natural protein),85.5%,,,
B1,,11.1 fold,20.4 fold,
B2,,12.3 fold,59 fold,42.6%
B3,,9.86 fold,9.85 fold,55.7%
B4,,,3.51 fold,89%
B5,,1.18 fold,1.24 fold,98.9%
B6,,6.1 fold,5.85 fold,77.3%
B7,,1.25 fold,0.91 fold,96.3%
B8,,,2.34 fold,86.2%
B9,,,7.21 fold,85%

# From paper PMC5760450, “FzlA, an essential regulator of FtsZ filament curvature, controls constriction rate during Caulobacter division” (Molecular Microbiology, 2017)
